In IntAct's records for PubMed 14660673:

B1: F-box protein MET30 (Saccharomyces cerevisiae), P39014 (parent)
chain: MRRERQRMMSFEDKDKDDLDNSNSNNSSEMTDTAMMPPLKRLLITGSSDDLAQGSSGKKKMTMATRSPSSSPDLATNDSGTRVQPLPEYNFTKFCYRHNPDIQFSPTHTACYKQDLKRTQEINANIAKLPLQEQSDIHHIISKYSNSNDKIRKLILDGILSTSCFPQLSYISSLVTHMIKIDFISILPQELSLKILSYLDCQSLCNATRVCRKWQKLADDDRVWYHMCEQHIDRKCPNCGWGLPLLHMKRARIQQNSTGSSSNADIQTQTTRPWKVIYRERFKVESNWRKGHCRIQEFKGHMDGVLTLQFNYRLLFTGSYDSTIGIWDLFTGKLIRRLSGHSDGVKTLYFDDRKLITGSLDKTIRVWNYITGECISTYRGHSDSVLSVDSYQKVIVSGSADKTVKVWHVESRTCYTLRGHTEWVNCVKLHPKSFSCFSCSDDTTIRMWDIRTNSCLKVFRGHVGQVQKIIPLTIKDVENLATDNTSDGSSPQDDPTMTDGADESDTPSNEQETVLDENIPYPTHLLSCGLDNTIKLWDVKTGKCIRTQFGHVEGVWDIAADNFRIISGSHDGSIKVWDLQSGKCMHTFNGRRLQRETQHTQTQSLGDKVAPIACVCIGDSECFSGDEFGCVKMYKFDLND

Variants of: B1
Details: with skp1_yeast SKP1, P52286
Sequence of skp1_yeast SKP1, P52286 (P52286 whole entry): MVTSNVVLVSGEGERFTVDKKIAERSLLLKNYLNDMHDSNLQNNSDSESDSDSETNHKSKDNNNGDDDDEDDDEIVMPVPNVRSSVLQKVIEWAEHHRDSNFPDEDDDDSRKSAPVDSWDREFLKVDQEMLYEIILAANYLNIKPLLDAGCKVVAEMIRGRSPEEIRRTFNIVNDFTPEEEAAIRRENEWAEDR

For P188L, which “effect of a mutation on the interaction” value is on record?
The value was “disrupting interaction strength”.

How did the “effect of a mutation on the interaction” value turn out when C211Y was run?
The value was “disrupting interaction strength”.

Which “effect of a mutation on the interaction” value does the source give for S163N here?
Its value is “disrupting interaction strength”.

For Q167R, which “effect of a mutation on the interaction” value is on record?
Its value is “disrupting interaction strength”.

For P188S, which “effect of a mutation on the interaction” value is on record?
The value was “disrupting interaction strength”.

For S169P, which “effect of a mutation on the interaction” value is on record?
Its value is “disrupting interaction strength”.

Variants of: B1
Details: with skp1_yeast SKP1, P52286
Remark: another data set of the same source

L187D;E190A was tested. Which “effect of a mutation on the interaction” value did it give?
The value was “decreasing interaction”.
